Experimental data reported in publication PMC3585816.

Columns and labels:
[1] = system: Iron regulatory protein 1 (rIRP1); experiment: EMSA; conditions: aminoallyl-UTP-ATTO-680 incorporated in the labeled probe; competitor unmodified; 100 ng probe heated 3 min at 95 C, 120 ng His-IRP, 15 min room temperature, then 50 ug sodium heparin 10 min; 5% native acrylamide gel, 1x TBE; binding buffer …
[2] = system: Iron regulatory protein 2 (rIRP2); experiment: EMSA; conditions: aminoallyl-UTP-ATTO-680 incorporated in the labeled probe; competitor unmodified; 100 ng probe heated 3 min at 95 C, 120 ng His-IRP, 15 min room temperature, then 50 ug sodium heparin 10 min; 5% native acrylamide gel, 1x TBE; binding buffer …

FTL IRE WT
binding signal (% of WT signal) [1]: 100 | binding signal (% of WT signal) [2]: 100
